Assay results taken from patent US20250034594A1, “RNA-GUIDED GENOME RECOMBINEERING AT KILOBASE SCALE” (THE BOARD OF TRUSTEES OF THE LELAND STANFORD JUNIOR …, priority 2021, published 2025).

B1: SSAP_24: SEQ ID NO: 193 (protein)
chain: TNNQIVEAKGDFLTNPQLLNSGIIRKYLDPQGKASDEELAYFIAQAKAQNLNPFTKEIYFIKYGTQPAQIVTAKSAFEKKADSHPQFDGKEAGVIYLMDGEIKYSKGAFIPKGAEILGGWAKVYRKDRTYPTETEVSFEEYDNSKIRARVKELTQQGKDVTYPVMNSYGKPIGENNWDTMPCVMIRKVALVSAYREAFPAELGASYEADEIQLDNTPKDVTPQESREDVVARKMAEIEQFNKEQEANHADPEPTQNEDPIQGELLDGELEY
B2: SSAP_128: SEQ ID NO: 297; Viridibacillus sp. FSL H8-0123 (protein, listed as Viridibacillus sp.)
chain: ATNNALKEQMKQAPSKEVKPEQSLNTLLKRMGPEIQRALPKHMDADRIARIALTAVRNTPKLLDCDQMSFVAALMQSAQLGVEPNTGLGQAYLIPYGKQVQFQLGYKGLIDLAVRSGQYKAIYAHEVYEDDEFSFAYGLHKDLVHVPAPNPTGEPIGYYAVYHLQNGGYDFVYWTRERIDQHAHKFSMAVQKGWTSPWKTNFDAMAKKTVLKEVLKYAPKSIEMQKVVDADETVKTDVSDDMSNVIDVTDYTVMDQEQETIQEPTK
B3: SSAP_156: SEQ ID NO: 325; Bacillus sp. AFS017336 (protein, listed as Bacillus sp.)
chain: ATNESLKNQITNKKTGEVPLTPAQQVSSYLKAYEGTFQQIAPKHFNTERFQRIALSEIRKNPKLLECSVPSLMSAVLQSVKLGLEPGLFGQAYLIPYGKEVQFQIGYRGLIELSQRSGRILKIQAREVYENDEFEVSYGIDDNIIHKPALDVDRGKVRLYYAVAWFKDGGAQFELMSISDVEKHRDKFSKTAKFGPWKDHFDEMAKKTVLKKLVKQLPMDVEFQEAVQEDETVRKTITDEPEILQAEFEIVDQPEISVE
B4: SSAP_60: SEQ ID NO: 229 (protein)
chain: ASKNEAIEVSPAEIASVKEKPASIVKAEKAKKEPCALVKYEDAEGREVVLTREDIINTISSNPRITDKEIKLFIELARAQKLNPFTREIFITKYGDYPATFIVGKDVFTKRAQSNPLFKGMQAGIIVQRGNAVDQREGSATFGDEMLIGGWCKVYVQGYDVPIYDSVSFNEYAARKTDGTLNAMWASKPATMIRKVAIVHALREAFPSDFQGLYDQSEMGLSGQGGE
B5: SSAP_99: SEQ ID NO: 268; Pseudomonas stutzeri (protein, listed as Pseudomonas stutzeri)
chain: STENVAPFSQKDMQQATGQQVKPRSPADSLAAMLASPKMKAQFAAALPKHMTAERMARIVTTEIRKTPALVKCDQHSFLGSVIQCAQLGLEPGNSLGHAYLLPYGNQVQLIIGYRGMIDLARRSGQIVSLSARTVREHDEFDYQLGLHEDLTHKPFEGEHAGEITHVYAVARLQGGGVQFEVMSKAQVEAVRAQSKAGKSGPWVSHWEEMAKKTVIRRLFKYLPVSVEIQRAVTLDEAAEAGLPQGNEYVFDGDFEVVNDASGAQQ

What was measured:
Type in all cases: cell-based
[1] = system: gene editing with Cas9 and dCas9; test: Screen of 322 new SSAP proteins, activity across all experiments (Cas9 and dCas9, Table 5); set-up: scale not given here
How it was run: (§1)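 First, 322 new single-strand annealing proteins are identified from sequences. Next they are synthesized. Finally each is assayed for editing in combination with Cas9 and, separately, dCas9.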

gene editing with Cas9 = test: Screen of 322 new SSAP proteins, gene editing activity with Cas9 (Table 5); set-up: Cas9 with SSAP activity: scale not given here
How it was run: as §1

gene editing with dCas9 = test: Screen of 322 new SSAP proteins, gene editing activity with dCas9 (Table 5); set-up: dCas9 with SSAP activity: scale not given here
How it was run: as §1

| Molecule | Activity across all experiments [1] | Cas9 with SSAP activity (gene editing with Cas9) | Cas9 with SSAP activity (normalized) (gene editing with Cas9) | dCas9 with SSAP activity (gene editing with dCas9) | dCas9 with SSAP activity (normalized) (gene editing with dCas9) |
| --- | --- | --- | --- | --- | --- |
| B1 | −4.480 | −3.642 | −0.681 | −5.319 | −0.711 |
| B2 | −2.230 | 0.839 | 0.272 | −5.299 | −0.965 |
| B3 | −2.272 | 0.844 | 2.230 | −5.389 | −0.877 |
| B4 | 0.534 | 0.757 | 0.560 | 0.311 | 0.109 |
| B5 | −4.570 | −3.807 | −0.873 | −5.333 | −0.891 |
